Measurements reported in the supplement of paper PMC10567573.

B1: ELF3 (parent)
chain: RLVYKFGKNSSGWKEEEVLQSRN

Variants of: B1
Assay: protein stability index of a GFP-peptide fusion (GPS, HEK-293T) (PSI 1-6); higher = more stable
Conditions: c terminus: native
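Note: lentivirally expressed fusions sorted by FACS into six bins by GFP to DsRed ratio, PSI derived from sequencing read proportions per bin multiplied by bin number.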

In order of falling protein stability index:
1. RLVYKDGKNSSGWKEEEVLQSRN [F6D]  4.7
2. RLVYKEGKNSSGWKEEEVLQSRN [F6E]  4.52
3. RLVYKFDKNSSGWKEEEVLQSRN [G7D]  4.11
4. RLVYKVGKNSSGWKEEEVLQSRN [F6V]  3.89
5. RLVHKFGKNSSGWKEEEVLQSRN [Y4H]  3.8
6. RLVYKGGKNSSGWKEEEVLQSRN [F6G]  3.75
7. RLVDKFGKNSSGWKEEEVLQSRN [Y4D]  3.73
8. RLVYKAGKNSSGWKEEEVLQSRN [F6A]  3.69
9. RLVYKNGKNSSGWKEEEVLQSRN [F6N]  3.65
10. RLVYKFWKNSSGWKEEEVLQSRN [G7W]  3.57
11. RLVYKKGKNSSGWKEEEVLQSRN [F6K]  3.53
12. RLVYKTGKNSSGWKEEEVLQSRN [F6T]  3.5
13. RLVEKFGKNSSGWKEEEVLQSRN [Y4E]  3.47
14. RLVYKPGKNSSGWKEEEVLQSRN [F6P]  3.47
15. RLVPKFGKNSSGWKEEEVLQSRN [Y4P]  3.43
16. RLVAKFGKNSSGWKEEEVLQSRN [Y4A]  3.39
17. RLVKKFGKNSSGWKEEEVLQSRN [Y4K]  3.36
18. RLVYKFGDNSSGWKEEEVLQSRN [K8D]  3.36
19. RLVYKHGKNSSGWKEEEVLQSRN [F6H]  3.29
20. RLVYKSGKNSSGWKEEEVLQSRN [F6S]  3.28
21. RLVYKFGKDSSGWKEEEVLQSRN [N9D]  3.19
22. RLVQKFGKNSSGWKEEEVLQSRN [Y4Q]  3.16
23. RLVNKFGKNSSGWKEEEVLQSRN [Y4N]  3.13
24. RLVYKQGKNSSGWKEEEVLQSRN [F6Q]  3.08
25. RLVYKFGKESSGWKEEEVLQSRN [N9E]  3.08
26. RLVTKFGKNSSGWKEEEVLQSRN [Y4T]  3.06
27. RLVYKRGKNSSGWKEEEVLQSRN [F6R]  3.06
28. RLVYKFGENSSGWKEEEVLQSRN [K8E]  2.97
29. RLVYKFEKNSSGWKEEEVLQSRN [G7E]  2.94
30. RLVYEFGKNSSGWKEEEVLQSRN [K5E]  2.89
31. RLTYKFGKNSSGWKEEEVLQSRN [V3T]  2.86
32. RLVYKFGCNSSGWKEEEVLQSRN [K8C]  2.85
33. RLVVKFGKNSSGWKEEEVLQSRN [Y4V]  2.82
34. RLVYDFGKNSSGWKEEEVLQSRN [K5D]  2.8
35. RLVYKFGANSSGWKEEEVLQSRN [K8A]  2.77
36. RLRYKFGKNSSGWKEEEVLQSRN [V3R]  2.75
37. RLVYLFGKNSSGWKEEEVLQSRN [K5L]  2.75
38. RLSYKFGKNSSGWKEEEVLQSRN [V3S]  2.7
39. RLVGKFGKNSSGWKEEEVLQSRN [Y4G]  2.69
40. RLVYKFSKNSSGWKEEEVLQSRN [G7S]  2.67
41. RLVYKFNKNSSGWKEEEVLQSRN [G7N]  2.64
42. RLVYKFGTNSSGWKEEEVLQSRN [K8T]  2.62
43. RLVMKFGKNSSGWKEEEVLQSRN [Y4M]  2.55
44. RLVYCFGKNSSGWKEEEVLQSRN [K5C]  2.52
45. RLVYSFGKNSSGWKEEEVLQSRN [K5S]  2.5
46. RLVYKFQKNSSGWKEEEVLQSRN [G7Q]  2.5
47. RLVYKFGGNSSGWKEEEVLQSRN [K8G]  2.49
48. RLVYKFGNNSSGWKEEEVLQSRN [K8N]  2.46
49. RLVYKYGKNSSGWKEEEVLQSRN [F6Y]  2.45
50. RLVYKFGSNSSGWKEEEVLQSRN [K8S]  2.44
51. RLVSKFGKNSSGWKEEEVLQSRN [Y4S]  2.42
52. RLVYKFYKNSSGWKEEEVLQSRN [G7Y]  2.41
53. RLVYNFGKNSSGWKEEEVLQSRN [K5N]  2.39
54. RLYYKFGKNSSGWKEEEVLQSRN [V3Y]  2.37
55. RLVFKFGKNSSGWKEEEVLQSRN [Y4F]  2.35
56. RLVYKFPKNSSGWKEEEVLQSRN [G7P]  2.31
57. RLVYKFTKNSSGWKEEEVLQSRN [G7T]  2.31
58. RLVYKFRKNSSGWKEEEVLQSRN [G7R]  2.29
59. RLVYKIGKNSSGWKEEEVLQSRN [F6I]  2.26
60. RLVYKFGHNSSGWKEEEVLQSRN [K8H]  2.26
61. RLVYKFGPNSSGWKEEEVLQSRN [K8P]  2.25
62. RLVYYFGKNSSGWKEEEVLQSRN [K5Y]  2.16
63. RLVYTFGKNSSGWKEEEVLQSRN [K5T]  2.14
64. RLVYKFGINSSGWKEEEVLQSRN [K8I]  2.14
65. RLVIKFGKNSSGWKEEEVLQSRN [Y4I]  2.12
66. RLVYKWGKNSSGWKEEEVLQSRN [F6W]  2.12
67. RLVYQFGKNSSGWKEEEVLQSRN [K5Q]  2.09
68. RLVYHFGKNSSGWKEEEVLQSRN [K5H]  1.98
69. RLVYKFGKFSSGWKEEEVLQSRN [N9F]  1.98
70. RLVYKFGKKSSGWKEEEVLQSRN [N9K]  1.97
71. RLVCKFGKNSSGWKEEEVLQSRN [Y4C]  1.95
72. RLVYVFGKNSSGWKEEEVLQSRN [K5V]  1.95
73. RLVYKFGLNSSGWKEEEVLQSRN [K8L]  1.92
74. RLVYMFGKNSSGWKEEEVLQSRN [K5M]  1.91
75. RLVYKFGVNSSGWKEEEVLQSRN [K8V]  1.91
76. RLVYKFKKNSSGWKEEEVLQSRN [G7K]  1.9
77. RLVYKFGKGSSGWKEEEVLQSRN [N9G]  1.9
78. RLVYPFGKNSSGWKEEEVLQSRN [K5P]  1.89
79. RLVYKFAKNSSGWKEEEVLQSRN [G7A]  1.89
80. RLVYKFGFNSSGWKEEEVLQSRN [K8F]  1.86
81. RLVLKFGKNSSGWKEEEVLQSRN [Y4L]  1.83
82. RLVYKFMKNSSGWKEEEVLQSRN [G7M]  1.81
83. RLVYKFHKNSSGWKEEEVLQSRN [G7H]  1.8
84. RLVYAFGKNSSGWKEEEVLQSRN [K5A]  1.76
85. RLVYKFGKASSGWKEEEVLQSRN [N9A]  1.7
86. RLVYKFGKHSSGWKEEEVLQSRN [N9H]  1.68
87. RLVYKLGKNSSGWKEEEVLQSRN [F6L]  1.61
88. RLVYKFVKNSSGWKEEEVLQSRN [G7V]  1.49
89. RLVYKFIKNSSGWKEEEVLQSRN [G7I]  1.46
90. RLVYKCGKNSSGWKEEEVLQSRN [F6C]  1.42
91. RLVYKFGYNSSGWKEEEVLQSRN [K8Y]  1.42
92. RLVYKFGMNSSGWKEEEVLQSRN [K8M]  1.38
93. RLVYIFGKNSSGWKEEEVLQSRN [K5I]  1.36
94. RLVYKFGRNSSGWKEEEVLQSRN [K8R]  1.31
95. RLVRKFGKNSSGWKEEEVLQSRN [Y4R]  1.23
96. RLVYRFGKNSSGWKEEEVLQSRN [K5R]  1.05
